Test [1] concerns the target recombinant FcγRIIIa (V158) (R&D Systems, cat#4325-FC-050) (UniProt P08637). Kind of test: Biacore binding to recombinant FcγRIIIa (V158), high density.
The target is the same in test [2]. Kind of test: Biacore binding to recombinant FcγRIIIa (V158), low density. A general note: SPR reads the build-up and loss of mass on a sensor chip optically.
Test [3] concerns the target T1, recombinant FcγRIIIa (V158) (R&D Systems, cat#4325-FC-050) (UniProt P08637 17-208). Kind of test: Biacore binding to recombinant FcγRIIIa (V158), high density.
In test [4] the target is T1, recombinant FcγRIIIa (V158) (R&D …). The experiment in a line: Biacore binding to recombinant FcγRIIIa.
The target is the same in test [5]. Kind of test: Biacore binding to recombinant FcγRIIIa (V158), low density.
The target is the same in test [6]. The experiment in a line: Biacore, FcγRIIIa (V158) binding (summary table; equals the 9th table, row 11, column 4).

For orientation: Kd means the constant that tells how readily two partners part at equilibrium.

T1 sequence (P08637 17-208 F176V limits assumed): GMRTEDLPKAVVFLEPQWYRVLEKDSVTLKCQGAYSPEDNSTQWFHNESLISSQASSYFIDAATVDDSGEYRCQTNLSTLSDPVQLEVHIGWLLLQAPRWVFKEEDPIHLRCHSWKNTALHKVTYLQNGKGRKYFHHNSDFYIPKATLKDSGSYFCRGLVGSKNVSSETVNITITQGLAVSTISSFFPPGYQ
Chain of recombinant FcγRIIIa (V158) (R&D Systems, cat#4325-FC-050) (UniProt P08637) (P08637 17-208 F176V limits assumed): as above

As for Herceptin CHO (antibody), the values for the Kd in test [1] and in test [2] were 67 nM and 82 nM, respectively.

B1: humanized 13C6 variant h13C6a expressed in FUT8KO CHO cells (antibody)
heavy: EVQLVESGPALVKPTQTLTLTCTFSGFSLSTSGVGVGWIRQPPGKALEWLALIWWDDDKYYNPSLKSRLTISKDTSKNQVVLTMTNMDPVDTATYYCARRDPFGYDNAMGYWGQGTLVTVSSASTKGPSVFPLAPSSKSTSGGTAALGCLVKDYFPEPVTVSWNSGALTSGVHTFPAVLQSSGLYSLSSVVTVPSSSLGTQTYICNVNHKPSNTKVDKKVEPKSCDKTHTCPPCPAPELLGGPSVFLFPPKPKDTLMISRTPEVTCVVVDVSHEDPEVKFNWYVDGVEVHNAKTKPREEQYNSTYRVVSVLTVLHQDWLNGKEYKCKVSNKALPAPIEKTISKAKGQPREPQVYTLPPSREEMTKNQVSLTCLVKGFYPSDIAVEWESNGQPENNYKTTPPVLDSDGSFFLYSKLTVDKSWQQGNVFSCSVMHEALHNHYTQKSLSLSPGK
light: DIQMTQSPSSLSASVGDRVTITCKASQNVGTAVAWYQQKPGKAPKLLIYSASNRYTGVPSRFSGSGSGTDFTLTISSLQPEDFATYYCQQYSSYPLTFGQGTKVEIKRTVAAPSVFIFPPSDEQLKSGTASVVCLLNNFYPREAKVQWKVDNALQSGNSQESVTEQDSKDSTYSLSSTLTLSKADYEKHKVYACEVTHQGLSSPVTKSFNRGEC
notes: copies: 2 + 2
As for B1, the Kd in test [3] turned out to be 27 nM; in test [5], 38 nM. Further, in test [4], the “fold improvement of binding against CHO cell expressed material” value is about 3 fold.

B2: humanized 13C6 variant h13C6a expressed in CHO cells (antibody)
heavy: EVQLVESGPALVKPTQTLTLTCTFSGFSLSTSGVGVGWIRQPPGKALEWLALIWWDDDKYYNPSLKSRLTISKDTSKNQVVLTMTNMDPVDTATYYCARRDPFGYDNAMGYWGQGTLVTVSSASTKGPSVFPLAPSSKSTSGGTAALGCLVKDYFPEPVTVSWNSGALTSGVHTFPAVLQSSGLYSLSSVVTVPSSSLGTQTYICNVNHKPSNTKVDKKVEPKSCDKTHTCPPCPAPELLGGPSVFLFPPKPKDTLMISRTPEVTCVVVDVSHEDPEVKFNWYVDGVEVHNAKTKPREEQYNSTYRVVSVLTVLHQDWLNGKEYKCKVSNKALPAPIEKTISKAKGQPREPQVYTLPPSREEMTKNQVSLTCLVKGFYPSDIAVEWESNGQPENNYKTTPPVLDSDGSFFLYSKLTVDKSWQQGNVFSCSVMHEALHNHYTQKSLSLSPGK
light: DIQMTQSPSSLSASVGDRVTITCKASQNVGTAVAWYQQKPGKAPKLLIYSASNRYTGVPSRFSGSGSGTDFTLTISSLQPEDFATYYCQQYSSYPLTFGQGTKVEIKRTVAAPSVFIFPPSDEQLKSGTASVVCLLNNFYPREAKVQWKVDNALQSGNSQESVTEQDSKDSTYSLSSTLTLSKADYEKHKVYACEVTHQGLSSPVTKSFNRGEC
notes: copies: 2 + 2
With B2, the figures for the Kd in test [3] and in test [5] were 113 nM and 117 nM, respectively.

B3: humanized 13C6 variant h13C6i expressed in FUT8KO CHO cells (antibody)
heavy: EVQLVESGPALVKPTQTLTLTCTFSGFSLSTSGVGVGWIRQPPGKALEWLALIWWDDDKYYNPSLKSRLTISKDTSKNQVVLTMTNMDPVDTATYYCARRDPFGYDNAMGYWGQGTLVTVSSASTKGPSVFPLAPSSKSTSGGTAALGCLVKDYFPEPVTVSWNSGALTSGVHTFPAVLQSSGLYSLSSVVTVPSSSLGTQTYICNVNHKPSNTKVDKKVEPKSCDKTHTCPPCPAPELLGGPSVFLFPPKPKDTLMISRTPEVTCVVVDVSHEDPEVKFNWYVDGVEVHNAKTKPREEQYNSTYRVVSVLTVLHQDWLNGKEYKCKVSNKALPAPIEKTISKAKGQPREPQVYTLPPSREEMTKNQVSLTCLVKGFYPSDIAVEWESNGQPENNYKTTPPVLDSDGSFFLYSKLTVDKSWQQGNVFSCSVMHEALHNHYTQKSLSLSPGK
light: DIQMTQSPSSLSASVGDRVTITCKASQNVGTAVAWYQQKPGKSPKLLIYSASNRYTGVPSRFSGSGSGTDFTLTISSLQPEDFATYFCQQYSSYPLTFGQGTKVEIKRTVAAPSVFIFPPSDEQLKSGTASVVCLLNNFYPREAKVQWKVDNALQSGNSQESVTEQDSKDSTYSLSSTLTLSKADYEKHKVYACEVTHQGLSSPVTKSFNRGEC
notes: copies: 2 + 2
For the molecule B3, the figures for the dissociation constant Kd in test [3], in test [6] and in test [5] were 24 nM, 24 nM and 36 nM, respectively. For the same molecule, in test [4], the “fold improvement of binding against CHO cell expressed material” value is about 3 fold.

B4: humanized 13C6 variant h13C6i expressed in CHO cells (antibody)
heavy: EVQLVESGPALVKPTQTLTLTCTFSGFSLSTSGVGVGWIRQPPGKALEWLALIWWDDDKYYNPSLKSRLTISKDTSKNQVVLTMTNMDPVDTATYYCARRDPFGYDNAMGYWGQGTLVTVSSASTKGPSVFPLAPSSKSTSGGTAALGCLVKDYFPEPVTVSWNSGALTSGVHTFPAVLQSSGLYSLSSVVTVPSSSLGTQTYICNVNHKPSNTKVDKKVEPKSCDKTHTCPPCPAPELLGGPSVFLFPPKPKDTLMISRTPEVTCVVVDVSHEDPEVKFNWYVDGVEVHNAKTKPREEQYNSTYRVVSVLTVLHQDWLNGKEYKCKVSNKALPAPIEKTISKAKGQPREPQVYTLPPSREEMTKNQVSLTCLVKGFYPSDIAVEWESNGQPENNYKTTPPVLDSDGSFFLYSKLTVDKSWQQGNVFSCSVMHEALHNHYTQKSLSLSPGK
light: DIQMTQSPSSLSASVGDRVTITCKASQNVGTAVAWYQQKPGKSPKLLIYSASNRYTGVPSRFSGSGSGTDFTLTISSLQPEDFATYFCQQYSSYPLTFGQGTKVEIKRTVAAPSVFIFPPSDEQLKSGTASVVCLLNNFYPREAKVQWKVDNALQSGNSQESVTEQDSKDSTYSLSSTLTLSKADYEKHKVYACEVTHQGLSSPVTKSFNRGEC
notes: copies: 2 + 2
As for B4, the Kd in test [3] is 111 nM; in test [5] it was 122 nM.

These data come from patent publication US20180362620A1 (Genentech, published 2018).
